Target: spike proteins of SARS-CoV-2 variants (614G, Alpha, Beta, Gamma, Delta, Kappa, Lambda, Mu, BA.1, BA.)
Test: cell-based or functional assay

B1: 3-1 antibody (antibody, V domains shown)
VH: EVQLVQSGAEVKKPGESLKISCKGSGYIFTNYWIGWVRQMPGKGLEWMGIINPRDSDTRYSPSFQGQVTISTDKSINTAYLQWSSLKASDTAMYYCARQQGGFGDLGAYNWFDPWGQGTLVTVSS
VL: not shown
Question: With B1 as the binder, how does the IC50, pseudovirus neutralization read?
Answer: < 0.25 µg/mL

— patent US20260139035A1
